In patent US10100120B2, “Antibody which specifically binds to human CRTH2” (KYOWA HAKKO KIRIN CO., LTD, priority 2015, dated 2018):

Target: T1, human CRTH2 (Homo sapiens, UniProt Q9Y5Y4)
T1 construct: expressed in transfected cells
T1 sequence (Q9Y5Y4 1-395): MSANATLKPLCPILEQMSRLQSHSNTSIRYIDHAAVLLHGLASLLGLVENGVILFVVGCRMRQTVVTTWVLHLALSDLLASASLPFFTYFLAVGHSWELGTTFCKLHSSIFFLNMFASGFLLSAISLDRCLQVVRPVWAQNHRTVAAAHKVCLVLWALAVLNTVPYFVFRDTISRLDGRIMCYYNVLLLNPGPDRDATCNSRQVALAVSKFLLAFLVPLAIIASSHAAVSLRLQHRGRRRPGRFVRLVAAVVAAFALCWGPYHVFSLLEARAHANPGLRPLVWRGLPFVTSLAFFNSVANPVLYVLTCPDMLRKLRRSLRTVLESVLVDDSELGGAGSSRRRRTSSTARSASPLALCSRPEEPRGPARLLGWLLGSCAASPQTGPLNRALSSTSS
Assay: ELISA reactivity against membrane fractions of human CRTH2-expressing CHO/DG44 cells with GTPγS or GDP treatment
Type: binding
Conditions: HRP-labeled antibody, FIG. 19
Procedure: Humanized Lym2 antibody LV0HV1 and hu19A2 v52 were directly labeled with HRP using Peroxidase Labeling Kit-NH2 (Dojindo Molecular Technologies, Inc.) according to the attached document and diluted to 1 mg/mL with D-PBS (−) (NACALAI TESQUE, Inc.).
The human CRTH2-expressing CHO/DG44 cells established in Example 1 were peeled using 0.02% EDTA solution (NACALAI TESQUE, Inc.) and the cells were washed with D-PBS (−) cooled to 4° C. The membrane fractions were prepared using Minute Plasma Membrane Protein Isolation Kit (Invent Biotechnologies) according to the attached document.
50 mM Tris-HCl buffer pH 7.4 (NACALAI TESQUE, Inc.) to which 50 mM HEPES (GIBCO Inc.), 5 mM MgCl2 (NACALAI TESQUE, Inc.), 100 mM NaCl (NACALAI TESQUE, Inc.), and 1 mM EDTA (Invitrogen) were added (hereinafter, referred to as an ELISA reaction solution) was added to the membrane fractions prepared in (2) to have a concentration of 1 mg/mL, and the mixture was added to PROTEOSAVE 1.5 mL Microtubes (Sumitomo Bakelite Co., Ltd.) at 50 μL/tube.
Next, an ELISA reaction solution to which 500 μM GTPγS (Roche Diagnostics K.K.) or 500 μM GDP (Sigma-Aldrich Co. LLC) was added was added to the microtubes at 50 μL/tube for incubation at 30° C. for 1 hour. […]
The absorbance at 480 nm was measured by SPECTRA max 340PC and the obtained result was analyzed using Graphpad Prism (ver. 6.05). […]

reactivity with respect to membrane fractions at GDP treatment compared to GTPγS treatment: not changed
B1: LV0HV1: humanized Lym2 antibody, VL LV0 (SEQ ID NO: 33), VH HV1 (SEQ ID NO: 51) (antibody, V domains shown)
VH: EVQLVESGGGVVQPGRSLRLSCAASGFTFSNYYMAWVRQAPGKGLEWVATISYDGSSTYYRDSVKGRFTISRDNAKNSLYLQMNSLRAEDTATYYCARHRGYYYSGAGYFDYWGQGTMVTVSS
VL: DIVMTQTPLSLPVTPGESASISCRSSQSLEYSDGYTYLEWYLQKPGQSPQVLIYGVSNRFSGVPDRFSGSGSGTDFTLKISRVEAEDVGVYYCFQATHDPLTFGQGTKLEIK
